Data as given in patent US20100151492A1.

Columns and labels:
human PD-L1 (human) = human PD-L1 (human) (UniProt Q9NZQ7); experiment: cell-based or functional assay
human PD-1 (human) = human PD-1 (human) (UniProt Q15116); experiment: cell-based or functional assay
UniProt Q15116, sequence (Q15116 other isoform, or with tags, fused parts or gaps limits assumed): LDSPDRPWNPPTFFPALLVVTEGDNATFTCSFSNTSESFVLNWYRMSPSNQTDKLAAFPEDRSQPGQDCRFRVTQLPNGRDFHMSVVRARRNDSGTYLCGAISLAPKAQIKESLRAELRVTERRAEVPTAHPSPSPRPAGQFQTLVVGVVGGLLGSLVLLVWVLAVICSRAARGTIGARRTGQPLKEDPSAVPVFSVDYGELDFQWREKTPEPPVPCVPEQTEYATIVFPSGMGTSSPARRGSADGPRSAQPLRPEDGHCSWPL

UniProt Q9NZQ7, sequence (Q9NZQ7 19-290 limits assumed): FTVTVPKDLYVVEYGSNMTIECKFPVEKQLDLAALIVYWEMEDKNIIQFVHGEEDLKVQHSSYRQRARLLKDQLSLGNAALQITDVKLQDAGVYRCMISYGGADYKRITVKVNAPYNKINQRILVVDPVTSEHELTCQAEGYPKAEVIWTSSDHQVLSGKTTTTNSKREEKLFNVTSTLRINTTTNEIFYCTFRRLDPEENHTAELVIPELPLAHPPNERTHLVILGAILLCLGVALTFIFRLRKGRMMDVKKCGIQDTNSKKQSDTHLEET

Row | expansion of HCV-specific T cells (frequency of CFSE low tetramer labeled CD8+ T cells after 6 days) (human PD-L1 (human)) | fold increase in tetramer+ cells (6-day CFSE proliferation of B*4201 TL9-specific CD8+ T cells) (human PD-L1 (human)) | fold increase in the frequency of EBV or CMV-specific CD8 T cells (6-day CFSE proliferation) (human PD-L1 (human)) | percentage of B*4201 TL9-specific CD8+ T cells after 6-day stimulation with peptide (human PD-L1 (human)) | expansion of HCV-specific T cells (frequency of CFSE low tetramer labeled CD8+ T cells after 6 days) (human PD-1 (human)) | Substance
1 | 4 fold | 10.3 fold | < 3.5 fold | 12.4% | – | Monoclonal antibody to human PD-L1 (29E.2A3, mouse IgG2b)
2 | – | – | – | – | 4 fold | Monoclonal antibody to human PD-1 (EH12, mouse IgG1)
